Results: IntAct's records for PubMed 10664449

B1: Guanine nucleotide-binding protein subunit beta (Saccharomyces cerevisiae), P18851 (parent)
chain: MAAHQMDSITYSNNVTQQYIQPQSLQDISAVEDEIQNKIEAARQESKQLHAQINKAKHKIQDASLFQMANKVTSLTKNKINLKPNIVLKGHNNKISDFRWSRDSKRILSASQDGFMLIWDSASGLKQNAIPLDSQWVLSCAISPSSTLVASAGLNNNCTIYRVSKENRVAQNVASIFKGHTCYISDIEFTDNAHILTASGDMTCALWDIPKAKRVREYSDHLGDVLALAIPEEPNSENSSNTFASCGSDGYTYIWDSRSPSAVQSFYVNDSDINALRFFKDGMSIVAGSDNGAINMYDLRSDCSIATFSLFRGYEERTPTPTYMAANMEYNTAQSPQTLKSTSSSYLDNQGVVSLDFSASGRLMYSCYTDIGCVVWDVLKGEIVGKLEGHGGRVTGVRSSPDGLAVCTGSWDSTMKIWSPGYQ
partner: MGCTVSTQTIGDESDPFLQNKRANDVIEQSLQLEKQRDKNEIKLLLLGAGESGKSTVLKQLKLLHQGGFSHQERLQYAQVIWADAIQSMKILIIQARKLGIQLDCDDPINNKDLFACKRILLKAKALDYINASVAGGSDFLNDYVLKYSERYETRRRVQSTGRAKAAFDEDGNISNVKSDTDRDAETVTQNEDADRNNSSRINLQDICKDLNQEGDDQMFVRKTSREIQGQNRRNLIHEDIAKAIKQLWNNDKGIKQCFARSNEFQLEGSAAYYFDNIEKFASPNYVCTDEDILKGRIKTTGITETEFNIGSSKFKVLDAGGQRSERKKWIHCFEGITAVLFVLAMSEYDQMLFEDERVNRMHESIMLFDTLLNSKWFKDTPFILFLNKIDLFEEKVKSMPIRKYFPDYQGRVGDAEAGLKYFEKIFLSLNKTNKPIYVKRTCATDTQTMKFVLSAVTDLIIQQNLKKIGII

Variants of: B1
Details: with gpa1_yeast GPA1, P08539

**Q.** For MAAHQMDSITYSNNVTQQYIQPQSLQDISAVEDEIQNKIEAARQESKQLHAQINKAKHKIQDASLFQMANKVTSLTKNKINLKPNIVLKGHNNKISDFRWSRDSKRILSASQDGFMLIWDSASGLKQNAIPFDSQWVLSCAISPSSTLVASAGLNNNCTIYRVSKENRVAQNVASIFKGHTCYISDIEFTDNAHILTASGDMTCALWDIPKAKRVREYSDHLGDVLALAIPEEPNSENSSNTFASCGSDGYTYIWDSRSPSAVQSFYVNDSDINALRFFKDGMSIVAGSDNGAINMYDLRSDCSIATFSLFRGYEERTPTPTYMAANMEYNTAQSPQTLKSTSSSYLDNQGVVSLDFSASGRLMYSCYTDIGCVVWDVLKGEIVGKLEGHGGRVTGVRSSPDGLAVCTGSWDSTMKIWSPGYQ [L132F], which “effect of a mutation on the interaction” value is on record?
**A.** decreasing interaction
